Experimental data published in publication PMC10781821, “Novel recombinant aminoacylase from Paraburkholderia monticola capable of N-acyl-amino acid synthesis” (Applied Microbiology and Biotechnology, 2024).

How the values were obtained:
[1] = substrate: CCCCCCCCCCCC(=O)N[C@@H](Cc1ccccc1)C(=O)O; assay: ninhydrin assay of released amino acid, initial rates; format: biochemical, Paraburkholderia monticola; settings: hydrolysis, 100 mM Na-borate pH 9.0, Zn2+ (50 µM), 30 °C in Results (Methods print 50 °C)
[2] = substrate: CCCCCCCCCCCC(=O)N[C@@H](C)C(=O)O; assay: as above; format: biochemical, Paraburkholderia monticola; settings: hydrolysis, 100 mM Na-borate pH 9.0, Zn2+ (50 µM), 30 °C in Results (Methods print 50 °C)

B1: PmAcy (N-terminally StrepII-tagged aminoacylase) (Paraburkholderia monticola) (protein)
chain: MLSLVLPGLSQAQSTLPPAPPAKPVLFTNFRLFDGKSMTLRDGLYMVVEGNSISQLGQGQPASVEGKTLVDCGGKVMMPGLIDMHWHALLAALPIQVILQSDIAFVHLAASAEAERTLLRGFTTIRDAGGPSFALKQAIDSGMISGPRIYPSGAMITTTGGHGDFRPLTDLPRTSSQVTQGERDGGFAIADTEDEMRVRVREQFIQGATQIKLVGSGGVSTPRSPLDMLTFTEKQLRAAVETAADWGTYVLSHAYTPEAVQRSVAAGAQCIEHGHLMDDKTAALMAKNGTWLSTQPFISEEDVGPLAPQSREKFLEVVAGTDNAFRLARKHGIKVAFGTDLLFSQAIATRQGTMLTHMKRWYSPAEALGMATGTNGQLLALTGKRNPYPRRLGVLEEGAYADLLLVDGNPLENLDLIANPEQNLRIVMKDGKFYKNTLKA
notes: full-length codon-optimised gene, N-terminal StrepII-tag with serine-glycine linker kept; E. coli BL21 (DE3) pGro7 (GroEL/S)
How did the Km [1] turn out when B1 was run?
The Km was 210 µM.

What about the Km [2] of the same protein?
Its Km is 1950 µM.
